We go through two molecules from US20220409661A1 (published 2022).

The target of the experiment is T1, WT-1 (Wilms tumor protein 1) peptide on HLA-A*02:01 (human).
T1 peptide: RMFPNAPYL
The experiment in a line: multimer staining.

B1: TCR #10 (TCR, V domains shown)
Valpha: AQTVTQSQPEMSVQEAETVTLSCTYDTSESNYYLFWYKQPPSRQMILVIRQEAYKQQNATENRFSVNFQKAAKSFSLKISDSQLGDTAMYFCAFNPWENYGQNFVFGPGTRLSVLP
Vbeta: GAVVSQHPSWVICKSGTSVKIECRSLDFQATTMFWYRQFPKQSLMLMATSNEGSKATYEQGVEKDKFLINHASLTLSTLTVTSAHPEDSSFYICSARPHSLTDTQYFGPGTRLTVL
On to B1, for which the binding result is on record as “recognises”.

B2: TCR #6 (TCR, V domains shown)
Valpha: EDQVTQSPEALRLQEGESSSLNCSYTVSGLRGLFWYRQDPGKGPEFLFTLYSAGEEKEKERLKATLTKKESFLHITAPKPEDSATYLCAVQTMDGNQFYFGTGTSLTVIP
Vbeta: NAGVTQTPKFQVLKTGQSMTLQCAQDMNHEYMSWYRQDPGMGLRLIHYSVGAGITDQGEVPNGYNVSRSTTEDFPLRLLSAAPSQTSVYFCASSYSLWDLQETQYFGPGTRLLVL
For the molecule B2, the binding result is on record as “recognises”.
